Numbered stars: 1 amine (or outer) side, 2 acyl side, 3 side chain; on linkers, the order of the positions; unused ones are H or OH. Square brackets hold non-standard residues; d marks the D form. Side chains are listed from the residue outwards. Ends that are not written are not given here. * marks the point of attachment. C18 diacid = O=C(O)CCCCCCCCCCCCCCCCC(=O)*; γGlu = O=C(O)[C@H](CCC(=O)[*:2])N[*:1]; AEEA = NCCOCCOCC(=O)O; Aib = CC(C)(N)C(=O)O
What was measured:
human GIP receptor [1] = target: T1, human GIP receptor (human, UniProt P48546 22-466); assay: cell-based or functional assay
T1 sequence (looked up): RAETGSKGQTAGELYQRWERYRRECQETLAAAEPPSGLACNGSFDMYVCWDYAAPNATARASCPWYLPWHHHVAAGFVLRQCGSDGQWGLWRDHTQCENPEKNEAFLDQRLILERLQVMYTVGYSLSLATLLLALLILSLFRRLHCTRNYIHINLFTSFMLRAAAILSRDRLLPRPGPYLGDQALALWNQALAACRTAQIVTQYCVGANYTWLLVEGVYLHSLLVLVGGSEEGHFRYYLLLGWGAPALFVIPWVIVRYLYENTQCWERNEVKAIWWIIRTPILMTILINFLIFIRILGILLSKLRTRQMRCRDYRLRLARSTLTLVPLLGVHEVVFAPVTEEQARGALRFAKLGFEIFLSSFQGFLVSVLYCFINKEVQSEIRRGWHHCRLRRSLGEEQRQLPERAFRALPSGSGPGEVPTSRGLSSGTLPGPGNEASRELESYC

human GLP-1 receptor [2] = target: T2, human GLP-1 receptor (human, UniProt P43220 24-463); assay: cell-based or functional assay
human GIP receptor [3] = target: T1, human GIP receptor; assay: cell-based or functional assay; remark: listed apart in the source
human GLP-1 receptor [4] = target: T2, human GLP-1 receptor; assay: displacement of [125I]GLP-1 from HEK-293 membranes expressing hGLP-1R (SPA beads)

B1: SEQ ID NO: 21 (peptide)
peptide: Y[Aib]EGTFISDLSI[Aib]K([AEEA-AEEA-γGlu-C18 diacid])ERIHQ[Aib]EFIEWLLAQGPSSGAPPPS-NH2
modifications: N-terminus assumed
SMILES: CC[C@H](C)[C@H](NC(=O)[C@H](CCCNC(=N)N)NC(=O)[C@H](CCC(=O)O)NC(=O)[C@H](CCCCNC(=O)COCCOCCNC(=O)COCCOCCNC(=O)CC[C@H](NC(=O)CCCCCCCCCCCCCCCCC(=O)O)C(=O)O)NC(=O)C(C)(C)NC(=O)[C@@H](NC(=O)[C@H](CO)NC(=O)[C@H](CC(C)C)NC(=O)[C@H](CC(=O)O)NC(=O)[C@H](CO)NC(=O)[C@@H](NC(=O)[C@H](Cc1ccccc1)NC(=O)[C@@H](NC(=O)CNC(=O)[C@H](CCC(=O)O)NC(=O)C(C)(C)NC(=O)[C@@H](N)Cc1ccc(O)cc1)[C@@H](C)O)[C@@H](C)CC)[C@@H](C)CC)C(=O)N[C@@H](Cc1c[nH]cn1)C(=O)N[C@@H](CCC(N)=O)C(=O)NC(C)(C)C(=O)N[C@@H](CCC(=O)O)C(=O)N[C@@H](Cc1ccccc1)C(=O)N[C@H](C(=O)N[C@@H](CCC(=O)O)C(=O)N[C@@H](Cc1c[nH]c2ccccc12)C(=O)N[C@@H](CC(C)C)C(=O)N[C@@H](CC(C)C)C(=O)N[C@@H](C)C(=O)N[C@@H](CCC(N)=O)C(=O)NCC(=O)N1CCC[C@H]1C(=O)N[C@@H](CO)C(=O)N[C@@H](CO)C(=O)NCC(=O)N[C@@H](C)C(=O)N1CCC[C@H]1C(=O)N1CCC[C@H]1C(=O)N1CCC[C@H]1C(=O)N[C@@H](CO)C(N)=O)[C@@H](C)CC
notes: Synthetic peptide, 39 residues
- EC50 hGIPR 0% HSA (cAMP, HEK-293) (human GIP receptor [1]): 0.00019 nM
- EC50 hGIPR 0.1% BSA (cAMP, HEK-293) (human GIP receptor [1]): 0.00836 nM
- EC50 hGLP-1R 0.1% BSA (cAMP, HEK-293) (human GLP-1 receptor [2]): > 10 nM
- hGIPR EC50 (cAMP, human adipocytes) (human GIP receptor [3]): 2.8 nM
- hGIPR Emax (cAMP, human adipocytes) (human GIP receptor [3]): 120%
- IC50 (human GLP-1 receptor [4]): 146 nM

B2: SEQ ID NO: 29 (peptide)
peptide: Y[Aib]EGTFISDLSI[Aib]K([AEEA-AEEA-γGlu-C18 diacid])DRIHQ[Aib]EFIEWLLAQEPSSGAPPPS-NH2
modifications: N-terminus assumed
SMILES: CC[C@H](C)[C@H](NC(=O)[C@H](CCCNC(=N)N)NC(=O)[C@H](CC(=O)O)NC(=O)[C@H](CCCCNC(=O)COCCOCCNC(=O)COCCOCCNC(=O)CC[C@H](NC(=O)CCCCCCCCCCCCCCCCC(=O)O)C(=O)O)NC(=O)C(C)(C)NC(=O)[C@@H](NC(=O)[C@H](CO)NC(=O)[C@H](CC(C)C)NC(=O)[C@H](CC(=O)O)NC(=O)[C@H](CO)NC(=O)[C@@H](NC(=O)[C@H](Cc1ccccc1)NC(=O)[C@@H](NC(=O)CNC(=O)[C@H](CCC(=O)O)NC(=O)C(C)(C)NC(=O)[C@@H](N)Cc1ccc(O)cc1)[C@@H](C)O)[C@@H](C)CC)[C@@H](C)CC)C(=O)N[C@@H](Cc1c[nH]cn1)C(=O)N[C@@H](CCC(N)=O)C(=O)NC(C)(C)C(=O)N[C@@H](CCC(=O)O)C(=O)N[C@@H](Cc1ccccc1)C(=O)N[C@H](C(=O)N[C@@H](CCC(=O)O)C(=O)N[C@@H](Cc1c[nH]c2ccccc12)C(=O)N[C@@H](CC(C)C)C(=O)N[C@@H](CC(C)C)C(=O)N[C@@H](C)C(=O)N[C@@H](CCC(N)=O)C(=O)N[C@@H](CCC(=O)O)C(=O)N1CCC[C@H]1C(=O)N[C@@H](CO)C(=O)N[C@@H](CO)C(=O)NCC(=O)N[C@@H](C)C(=O)N1CCC[C@H]1C(=O)N1CCC[C@H]1C(=O)N1CCC[C@H]1C(=O)N[C@@H](CO)C(N)=O)[C@@H](C)CC
notes: Synthetic peptide, 39 residues (Glu at 30)
- EC50 hGIPR 0% HSA (cAMP, HEK-293) (human GIP receptor [1]): 0.00015 nM
- EC50 hGIPR 0.1% BSA (cAMP, HEK-293) (human GIP receptor [1]): 0.0152 nM
- EC50 hGLP-1R 0.1% BSA (cAMP, HEK-293) (human GLP-1 receptor [2]): > 10 nM
- hGIPR EC50 (cAMP, human adipocytes) (human GIP receptor [3]): 5.3 nM
- hGIPR Emax (cAMP, human adipocytes) (human GIP receptor [3]): 119%
- IC50 (human GLP-1 receptor [4]): 287 nM

B3: SEQ ID NO: 30 (peptide)
peptide: Y[Aib]EGTFISDLSI[Aib]K([AEEA-AEEA-γGlu-C18 diacid])DRIHQ[Aib]EFIEWLLAQRPSSGAPPPS-NH2
modifications: N-terminus assumed
SMILES: CC[C@H](C)[C@H](NC(=O)[C@H](CCCNC(=N)N)NC(=O)[C@H](CC(=O)O)NC(=O)[C@H](CCCCNC(=O)COCCOCCNC(=O)COCCOCCNC(=O)CC[C@H](NC(=O)CCCCCCCCCCCCCCCCC(=O)O)C(=O)O)NC(=O)C(C)(C)NC(=O)[C@@H](NC(=O)[C@H](CO)NC(=O)[C@H](CC(C)C)NC(=O)[C@H](CC(=O)O)NC(=O)[C@H](CO)NC(=O)[C@@H](NC(=O)[C@H](Cc1ccccc1)NC(=O)[C@@H](NC(=O)CNC(=O)[C@H](CCC(=O)O)NC(=O)C(C)(C)NC(=O)[C@@H](N)Cc1ccc(O)cc1)[C@@H](C)O)[C@@H](C)CC)[C@@H](C)CC)C(=O)N[C@@H](Cc1c[nH]cn1)C(=O)N[C@@H](CCC(N)=O)C(=O)NC(C)(C)C(=O)N[C@@H](CCC(=O)O)C(=O)N[C@@H](Cc1ccccc1)C(=O)N[C@H](C(=O)N[C@@H](CCC(=O)O)C(=O)N[C@@H](Cc1c[nH]c2ccccc12)C(=O)N[C@@H](CC(C)C)C(=O)N[C@@H](CC(C)C)C(=O)N[C@@H](C)C(=O)N[C@@H](CCC(N)=O)C(=O)N[C@@H](CCCNC(=N)N)C(=O)N1CCC[C@H]1C(=O)N[C@@H](CO)C(=O)N[C@@H](CO)C(=O)NCC(=O)N[C@@H](C)C(=O)N1CCC[C@H]1C(=O)N1CCC[C@H]1C(=O)N1CCC[C@H]1C(=O)N[C@@H](CO)C(N)=O)[C@@H](C)CC
notes: Synthetic peptide, 39 residues (Arg at 30)
- EC50 hGIPR 0% HSA (cAMP, HEK-293) (human GIP receptor [1]): 0.00048 nM
- EC50 hGIPR 0.1% BSA (cAMP, HEK-293) (human GIP receptor [1]): 0.011 nM
- EC50 hGLP-1R 0.1% BSA (cAMP, HEK-293) (human GLP-1 receptor [2]): > 10 nM
- hGIPR EC50 (cAMP, human adipocytes) (human GIP receptor [3]): 0.5 nM
- hGIPR Emax (cAMP, human adipocytes) (human GIP receptor [3]): 138%
- IC50 (human GLP-1 receptor [4]): 151 nM

B4: SEQ ID NO: 36 (peptide)
peptide: Y[Aib]EGTFISDLSI[Aib]LEEQK([AEEA-AEEA-γGlu-C18 diacid])Q[Aib]EFIEWLLAQGPSSGAPPPS-NH2
modifications: N-terminus assumed
SMILES: CC[C@H](C)[C@H](NC(=O)[C@H](Cc1ccccc1)NC(=O)[C@H](CCC(=O)O)NC(=O)C(C)(C)NC(=O)[C@H](CCC(N)=O)NC(=O)[C@H](CCCCNC(=O)COCCOCCNC(=O)COCCOCCNC(=O)CC[C@H](NC(=O)CCCCCCCCCCCCCCCCC(=O)O)C(=O)O)NC(=O)[C@H](CCC(N)=O)NC(=O)[C@H](CCC(=O)O)NC(=O)[C@H](CCC(=O)O)NC(=O)[C@H](CC(C)C)NC(=O)C(C)(C)NC(=O)[C@@H](NC(=O)[C@H](CO)NC(=O)[C@H](CC(C)C)NC(=O)[C@H](CC(=O)O)NC(=O)[C@H](CO)NC(=O)[C@@H](NC(=O)[C@H](Cc1ccccc1)NC(=O)[C@@H](NC(=O)CNC(=O)[C@H](CCC(=O)O)NC(=O)C(C)(C)NC(=O)[C@@H](N)Cc1ccc(O)cc1)[C@@H](C)O)[C@@H](C)CC)[C@@H](C)CC)C(=O)N[C@@H](CCC(=O)O)C(=O)N[C@@H](Cc1c[nH]c2ccccc12)C(=O)N[C@@H](CC(C)C)C(=O)N[C@@H](CC(C)C)C(=O)N[C@@H](C)C(=O)N[C@@H](CCC(N)=O)C(=O)NCC(=O)N1CCC[C@H]1C(=O)N[C@@H](CO)C(=O)N[C@@H](CO)C(=O)NCC(=O)N[C@@H](C)C(=O)N1CCC[C@H]1C(=O)N1CCC[C@H]1C(=O)N1CCC[C@H]1C(=O)N[C@@H](CO)C(N)=O
notes: as for B1
- EC50 hGIPR 0% HSA (cAMP, HEK-293) (human GIP receptor [1]): 0.00012 nM
- EC50 hGIPR 0.1% BSA (cAMP, HEK-293) (human GIP receptor [1]): 0.0288 nM
- EC50 hGLP-1R 0.1% BSA (cAMP, HEK-293) (human GLP-1 receptor [2]): > 10 nM
- hGIPR EC50 (cAMP, human adipocytes) (human GIP receptor [3]): 0.3 nM
- hGIPR Emax (cAMP, human adipocytes) (human GIP receptor [3]): 104%
- IC50 (human GLP-1 receptor [4]): 115 nM

B5: SEQ ID NO: 37 (peptide)
peptide: Y[Aib]EGTFISDLSI[Aib]LDRIK([AEEA-AEEA-γGlu-C18 diacid])Q[Aib]EFIEWLLAQGPSSGAPPPS-NH2
modifications: N-terminus assumed
SMILES: CC[C@H](C)[C@H](NC(=O)[C@H](CCCNC(=N)N)NC(=O)[C@H](CC(=O)O)NC(=O)[C@H](CC(C)C)NC(=O)C(C)(C)NC(=O)[C@@H](NC(=O)[C@H](CO)NC(=O)[C@H](CC(C)C)NC(=O)[C@H](CC(=O)O)NC(=O)[C@H](CO)NC(=O)[C@@H](NC(=O)[C@H](Cc1ccccc1)NC(=O)[C@@H](NC(=O)CNC(=O)[C@H](CCC(=O)O)NC(=O)C(C)(C)NC(=O)[C@@H](N)Cc1ccc(O)cc1)[C@@H](C)O)[C@@H](C)CC)[C@@H](C)CC)C(=O)N[C@@H](CCCCNC(=O)COCCOCCNC(=O)COCCOCCNC(=O)CC[C@H](NC(=O)CCCCCCCCCCCCCCCCC(=O)O)C(=O)O)C(=O)N[C@@H](CCC(N)=O)C(=O)NC(C)(C)C(=O)N[C@@H](CCC(=O)O)C(=O)N[C@@H](Cc1ccccc1)C(=O)N[C@H](C(=O)N[C@@H](CCC(=O)O)C(=O)N[C@@H](Cc1c[nH]c2ccccc12)C(=O)N[C@@H](CC(C)C)C(=O)N[C@@H](CC(C)C)C(=O)N[C@@H](C)C(=O)N[C@@H](CCC(N)=O)C(=O)NCC(=O)N1CCC[C@H]1C(=O)N[C@@H](CO)C(=O)N[C@@H](CO)C(=O)NCC(=O)N[C@@H](C)C(=O)N1CCC[C@H]1C(=O)N1CCC[C@H]1C(=O)N1CCC[C@H]1C(=O)N[C@@H](CO)C(N)=O)[C@@H](C)CC
notes: as for B1
- EC50 hGIPR 0% HSA (cAMP, HEK-293) (human GIP receptor [1]): 0.00015 nM
- EC50 hGIPR 0.1% BSA (cAMP, HEK-293) (human GIP receptor [1]): 0.0201 nM
- EC50 hGLP-1R 0.1% BSA (cAMP, HEK-293) (human GLP-1 receptor [2]): > 10 nM
- hGIPR EC50 (cAMP, human adipocytes) (human GIP receptor [3]): 0.5 nM
- hGIPR Emax (cAMP, human adipocytes) (human GIP receptor [3]): 113%
- IC50 (human GLP-1 receptor [4]): 41 nM

From patent publication US20240360194A1, “New Peptides as Potent and Selective GIP Receptor Agonists” (Sanofi, priority 2021, published 2024)
